In a protein production outcome set (Wang et al. 2014):

Experiment: label from the status in PepcDB records
For “MNTIIRYASLWGLCAALTLAQTPSKTPDEIKQILNNYSHKNLKLIDPPTSSLEATPSFLSSPKETATTINQEIAKYHEKSDKAALGLYELLKGATTNLSLQAQELSVKQAMKNHTIAKAMFLPTLNASYNFKNEARDTPEYKHYNTQQLQAQVTLNVFNGFSDVNNVKEKSATYRSNVANLEYSRQSVYLQVVQQYYEYFNNLARMIALQKKLEQIKTDIKRVTKLYDKGLTTIDDLQSLKAQGNLSEYDILDMQFALEQNRLTLEYLTNLSVKNLKKTTIDAPNLQLRERQDLVSLREQISAIRYQNKQLNYYPKIDVFDSWLFWIQKPAYATGRFGNFYPGQQNTAGVTATLNIFDDIGLSLQKQSIMLGQLANEKNLAYKKLEQEKDEQLYRKSLDIARAKIESSKASLDAANLSFANIKRKYDANLVDFTTYLRGLTTRFDAEVAYNLALNNYEVQKANYIFNSGHKIDDYVH”, the protein production was “failed”.
For “MNTILSTLFIVLAAWFVISRFLPVKGVQNINGKELKSIVGKQGKYFIDVRTVGEYRGNHMKGFQNIPLNDLASKTNQLDKNREVIVICQSGMRSKQAAKMLKKLGFQHVINVSGGMNGL”, the protein production was “failed”.
In the case of “MNTIVVAQLQRQFQDYIVSLYQQGFLDNQFSELRKLQDEGTPDFVAEVVSLFFDDCSKLINTMSISLERPDNVDFKQVDSGVHQLKGSSSSLCFVLSVGARRVKNVCISFKECCDVQNREGYSSNSHTNCDNDIWHRCLRCLQQVDYEYKMLKTKLQDLFNVSFKLCENLLVLLLEKQILQAGGTIPQVDIN”, the protein production is reported as “failed”.
With “MNTLNRYIGWEVIKGAAFAALVLLALLNFFTFADELRDLGEGNYGLGSIFLYLTLTSPHSLYELIPSGALIGGLVVLGNMANNHELVAMQAAGVSRGRIVWAVLRAGIVISLISVVISEYVIPPAERAAQMLKATATRQQVASQTKYGVWIRDGNVYVNVREIENQERLGDIHIFEISPDGRPALAMHAARASFDRGIWKLEDIGLTRFDPAGNAAIAEHKEQEDWSSVLSPDMLDVFIVRPENLSAQDLAKYMAYQTENAQKSLAVEQAFWGRMVNPLITLAMLLLAIPFVFNARRDVSSGQRIVIGVTIGLGFYLTNRMVSHLGLVYEVNAPLTMVTPPLVVLFAALAAFRRRP” the protein production was “failed”.
For “MNTLRYFDFGAARPVLLLIARIAVVLIFIIFGFPKMMGFDGTVQYMASLGAPMPMLAAIIAVVMEVPAAILIVLGFFTRPLAVLFIFYTLGTAVIGHHYWDMTGDAVGPNMINFWKNVSIAGAFLLLAITGPGAISLDRR”, the protein production was “failed”.
For “MNTPQFNKIAVLVATLLISALFLTMIRQFLVTILLAGIFTGLAYPLFSRFITLTRGHRSLSASMTLVIFFMMVFLPLLAVFTVVILQAVSLSSTAIPLIREQLRDPEGFLRMLSSLPFYKDIESYSDLILEKAAEILGNLGSSVLSSFSAITWTAIYDLVLFIIFWYTMFFLLRDGHELLERIKYYLPLNESDQRRLFDRFVSVTRASLKGSLIIAVIQGTLAGLAFYVAGINQAVFWGAIMAMLSLLPLIGSPIIWVPAVIILALSGNYAQAIGLFLFCSIIVGQIDNVLRPILVGRDTSMHELFIFFGTLGGIGMFGLPGFIIGPVVAALFVTVWDIYGETFNESLIERRSGGGQAAGSDGSAP”, the protein production was “failed”.
For “MNTRHFSQLPKPYLAYPKVIQGLVFKKPKGSKILPQVEYVVDSFQIDQQHLRDYNEVCGFQNDGFIPAIYLAVLSQSLQMHMMTTEAFPFPVLGLVHIRNQIKQIRKIAVNETLTLSCQFGELKPHDKGLQFDFITTAKVGNDIVMEGITTYLSRQKTEQVSAEKPKENKTPDYQVQQVWDVAENTGRRYAKTSGDYNLIHIHAITAKAFGFKQAIAHGMWSKAKALANIVLPDAYEADVWFKLPMYLPSKVEFLTAEQSKETDFLIRNAKSQKPHVSGVVKAL”, the protein production was “failed”.
With “MNTSFIKTLMTTNAGFAALALRIPTAIIFIAHGAQKLFGSFGGYGLEGTGQWMASIGLEPGYQLALLAGSAEFFGGIALLIGLLVRPAALMLSVTMVVAIFSVHFANGLFMTNNGYEFALALLAVSFSLMFSGAGKLSLDNLLAEKLA” the protein production was “failed”.
For “MNTSNRRMGLFYVITGATCWGIGGTVAKKLFQEYQIDVNWLVTTRLLTAGMLLLMLQLFRKDRSQVIEVWKHKASAGQLLIFGLLGMLAVQYTYMASIQHGNAAVATLLQYLSPVIVIIYTLLRKQTVLTKQDIITVVLALVGCFFLLTNGSMSQLSVPAAAVVWGVLSGFAAAFYTLYAVGLLNKFDSLVVVGWAMIIGGFALGFIHPPWQLDFQRLTAEAYAYILFVILFGTMIAFWFFIKSLESLSPKETSLLGSLEPLSAVVTTVVWLKAPFGSFQWIGAICIIGITLILALHKEPSMESEKSILKIRNHANRDI”, the protein production was “failed”.
For “MNTYAQESKLRLKTKIGADGRCVIEDNFFTPPFKLMAPFYPKDDLAEIMLLAVSPGMMRGDAQDVQLNIGPNCKLRITSQSFEKIHNTEDGFASRDMHIVVGENAFLDFAPFPLIPFENAHFKGNTTISLRSSSQLLYSEIIVAGRVARNELFKFNRLHTKISILQDEKPIYYDNTILDPKTTDLNNMCMFDGYTHYLNLVLVNCPIELSGVRECIEESEGVDGAVSETASSHLCVKALAKGSEPLLHLREKIARLVTQTTTQKV”, the protein production was “failed”.
For “MNVLFTSVPQEDVPFYQEALKDLSLKIYTTDVSKVPENELKKAELISVFVYDKLTEELLSKMPRLKLIHTRSVGFDHIDLDYCKKKGILVTHIPAYSPESVAEHTFAMILTLVKRLKRIEDRVKKLNFSQDSEILARELNRLTLGVIGTGRIGSRVAMYGLAFGMKVLCYDVVKREDLKEKGCVYTSLDELLKESDVISLHVPYTKETHHMINEERISLMKDGVYLINTARGKVVDTDALYRAYQRGKFSGLGLDVFEDEEILILKKYTEGKATDKNLKILELACKDNVIITPHIAYYTDKSLERIREETVKVVKAFVKGDLEQIKGNFVVGPS”, the protein production was “not failed”.
With “MNVLRPALLTLACMLASPVMSDDLPSLGDASSSIVSPEQEFQLGRAWLSMLRNQVDAISDPQLKDFVESSVYRLAETSDLQDHRLAFILIRDAQINAFAAPGGVIGVNGGLLLNAQTEGEYAAVLAHELGHLIQRHFARGIEAQQRMQLPVMAAMLAGIVAAAAGAGDAGIAAIAGTQAAAIQNQLRFSRQNEQEADRVGVTNMVRAGYDPRSMPNMFERLARQYRYDGKPPEFLLTHPVTESRIADTRNRAEQYPQGGKEDSLRYQQMRARTQLLFEETPGMAGKRFRAMLNDNPKLDAARYGLAISQTRIGQLNDARDNLRQLLAKAPNDVAYNLAQVELDITANRLPDADQRLKKMLAQFPSSYPLKQVRADLMLKMGKPQESEKILDDLSKARPLDPDVWNRLAEVRSLTNNAIGVHQARAEYLSLTGDYQAAIEQLDFAKRRAGGNFQLAARLDARQQEIRQQEKMVKEMFR” the protein production was “failed”.
For “MNVMQENQIKLIEHIKQAVVQAVGLEETEVPEILLEVPKDKKHGDYSTNIAMQLARVAKKAPRQIAESIVPELKKDTKLIKEVEIAGPGFINFYLDNAYLTDLVPVILTEDKKYG”, the protein production was “not failed”.
With “MNVSHISAVSYYFARYIQEVLEVPVGIVVSTWGGSKIEAWMSRESIKPFSSIDLSILDNDAEVKNPTATPCVLYNGKIAPLTNFAVRGFLWYQGESNRDNADLYQSLMPAFVADLRAKWGRGELPFYFVQIAPFDYEGADGTSAARLREVQLQNMKDIPNSGMVTTMDVGHPVFIHPVDKETVGNRLAYWALAQTYGMKGFGYAPPVYKSMEIQENKIYINFYNAQRGLSPMWTSLKGFEIAGEDKVFYPAFAEIETTTARLAVSSDKVSHPVAVRYAYKNYVEASIFSIHGIPAAPFRTDNWLEHHHHHH” the protein production was “failed”.
For “MNVTPWEVEGVIDYSKLIEEFGMQPFSEVLPEIDNPHILMRRGAIFGHRDYWRIIEAMQKKEPWAVMSGFMPSGLPHFGHKMTMDEIVWHQSAGGKAFVAIADMEAHSVRGLSWEKTRELGMLYIKSIIALGLREDAVIYFQSKSSHVKDLAFELSAEVNFSELRAIYGFNSDTSLAKMFVTAIQAADILHPQLSDFGGPKPVVVPVGADQDPHMRLTRDLAARISIFSFEPVEGGVRVRSRKGAEYLSSLRDLEFDKKIYEEHMDIFGEAEEIERAVRKIEVEIGGFAFIPPSSTYHRFTTGLTGGKMSSSKPESYISLLDPPEEGAKKVMKAFTGGRATAEEQRRLGGEPDRCVVFELYSFHLIDSDEELNQIEAECREGRLLCGKCKKMAAELVKSFLKEHQEKMEAVDLSNYTIIG”, the protein production was “failed”.
With “MNVWLLGRGELRRRHDDVLQLERAFLTDRTGLHFVNARSSEDLLALAESRRAEQQWPVLDAEWISPVGTDTCDDLVWQNLESTLDGRPDTFYSTAGFEAGNTLSGTGELAPGEAFLAYRFWRPVRVYAVQLRAFQADFHPGRPVYPFQVARVGVGCSLQAGMSLSYGADASAPGTSCNYRCFCTTEQQTLVFDDPMVGVYLVICLKGFPQQQLTDRLHYAAVSGIRVFGEPISSPALENELSCLISRGFILDGRDAARWLDLRSAQEHAAPMHIPEDEVI” the protein production was “not failed”.
In the case of “MNVYDLIAEHYSGLFPLETEKLEFIQHLCPLPGRLCDAGCATGELVMGLYQKGYDICGLDLNEKMIGIAEKKASCIRKTGELMFYHADIADIMQFGKFKGVLCFGNTLPHLRDEEALRRFFGSVYRSLEEHGIFIVEVLNYDRILDDKKMDFKDKETKDFIFKRNYDFLPGGNIRFTIEFTDKQRSTVGSDFTVLHPLKRQMLLALFKQTGFKSVSAYSDYSFTESRAEDYAVVYTANK”, the protein production is reported as “failed”.
For “MNWKDKVKTTFYSCDRFVRFVIQHFIQDDCTYIASALAFTSLLAVVPLMSVGLAIFSSFPVFQGLAEPVQNFIFDNFVPATGKIVQSYLQQFTSQVSKLSIWGIVFLIFTALLVMFTIERAMNKIWRVSSSRHGVSAFLLYWAIISLAPVLLGLSLAASSYLFSMPILADHRAPYTILHYSPFFLSLIGFTFLYVVVPNCPVKIRHAFWGGLVAAILFESAKHAFAYYLIRYNTYALLYGAFATVPIFFIWVYWVWIITLLGAEISYAFSVHHQRRGGKSLDGFSHALLWLHQLWLAQQHGKGLSFNDLVDASKQPFAVDVDEMINALIYHELIHATADGHYMLSRDLSHVTLYDLTQLLPYRLPTHLELQYSKASLAEQWRAAFKRHNEELKKSLDINLEELFKKTGTVIK”, the protein production was “failed”.
With “MNWRRYNGRKKLAIIVPIYNVADYLKDCLNSLLKQGVPEKELQIILVDEGSTDNSAQIAQKFVEKYPNFFELHQFENAGLGAARNRGTRLARARFITYVDSDDIVAPNSYEYMLGILERTGSQIITGNVHRFNSKKEWLNNIHARSHLGDFENTSLKEHPELIWDSTSWNKIFCLDFLKENNLYFPEGVLYEDIPMINPAFAAAKSIDIVKRMVYLWRAREGSITESSTDAKAVLDRITITEIALAGLKKYNAPNEILDILYLKSLNLGIISMLRKEKYEYISLERKQELFNSLKEYLEKFPSDTLYQAKFDKLIYFDKVLKAKTQEEFDEITSKYLKNEIGFSGYWNDAGQYVLKSDYSDLEKIVTSDDLEIHPKIEEVVFEDDSLKIQGYFYAKYSDMSAPENVKILGISALSDDGNTINEIVGEKRNFENQRITAKFGYNLNHFVKDGADFNYDYSGYELKIPLNHLEFETTNSLAFVLEVEIDGLKFEVPIKNPISGDKPRPKVGLSNAQVFSVSYKTDWSLVLSLKERSVEELYFSEDGKELRIKGNATKIALKSGKTKLPLKLVGGRVMISQAVQEKIKSFDKSVFHWWQFITYVNGKEKSIYYSGFPKNFQNDSNLEILFSNNGVATLGISYLYPLVEKLQVEENVLKLAFSLKGWMTEATKVQIVADPTLSMIWETEKMNENLYQLSLPLTLDGFSDKEWLNFHVRLTFNDGYQTNELLRWGKKEFALKNEWVSANGIGWFFRSVEQKEHGAFAIKRTADRVFQEKVGNLEYVLQEKYQNWLKEPVLNDYIMMSSFWGRNNHFNDNPEALYRYIEKNYPNMTTIIVLKDAIRSYPEYPNAKIVSYGTADYWYYLARSKYFVNNVNFTEPPRIKREEQIEIQTMHGTPLKTLGFDVLGDWKDSTYNEVLRKNGNWDYLTVPSDWVANYALKAFRVSPQIIKSGYPRNDKLFIDYKM” the protein production was “failed”.
For “MNYDRYYTCDLVNGEGVRVTLFVTGCAHACDGCHNRSTWDRKSGRPFTPEAREELLRHCASHDGLSLSGGDPLLPANRDEILALCRMFKQRYPQKNIWLWTGYDYEEVRELEILQFVDVLIDGRYRQDLPTSKPWRGSDNQRLIRLGAGSGAAVAAVGAADVIAFEA”, the protein production was “failed”.
